B1: Phosphatidylinositol 4,5-bisphosphate 3-kinase catalytic subunit delta isoform (Homo sapiens), O00329 (parent)
chain: MPPGVDCPMEFWTKEENQSVVVDFLLPTGVYLNFPVSRNANLSTIKQLLWHRAQYEPLFHMLSGPEAYVFTCINQTAEQQELEDEQRRLCDVQPFLPVLRLVAREGDRVKKLINSQISLLIGKGLHEFDSLCDPEVNDFRAKMCQFCEEAAARRQQLGWEAWLQYSFPLQLEPSAQTWGPGTLRLPNRALLVNVKFEGSEESFTFQVSTKDVPLALMACALRKKATVFRQPLVEQPEDYTLQVNGRHEYLYGSYPLCQFQYICSCLHSGLTPHLTMVHSSSILAMRDEQSNPAPQVQKPRAKPPPIPAKKPSSVSLWSLEQPFRIELIQGSKVNADERMKLVVQAGLFHGNEMLCKTVSSSEVSVCSEPVWKQRLEFDINICDLPRMARLCFALYAVIEKAKKARSTKKKSKKADCPIAWANLMLFDYKDQLKTGERCLYMWPSVPDEKGELLNPTGTVRSNPNTDSAAALLICLPEVAPHPVYYPALEKILELGRHSECVHVTEEEQLQLREILERRGSGELYEHEKDLVWKLRHEVQEHFPEALARLLLVTKWNKHEDVAQMLYLLCSWPELPVLSALELLDFSFPDCHVGSFAIKSLRKLTDDELFQYLLQLVQVLKYESYLDCELTKFLLDRALANRKIGHFLFWHLRSEMHVPSVALRFGLILEAYCRGSTHHMKVLMKQGEALSKLKALNDFVKLSSQKTPKPQTKELMHLCMRQEAYLEALSHLQSPLDPSTLLAEVCVEQCTFMDSKMKPLWIMYSNEEAGSGGSVGIIFKNGDDLRQDMLTLQMIQLMDVLWKQEGLDLRMTPYGCLPTGDRTGLIEVVLRSDTIANIQLNKSNMAATAAFNKDALLNWLKSKNPGEALDRAIEEFTLSCAGYCVATYVLGIGDRHSDNIMIRESGQLFHIDFGHFLGNFKTKFGINRERVPFILTYDFVHVIQQGKTNNSEKFERFRGYCERAYTILRRHGLLFLHLFALMRAAGLPELSCSKDIQYLKDSLALGKTEEEALKHFRVKFNEALRESWKTKVNWLAHNVSKDNRQ

Variants of: B1
Settings: with p85a_human PIK3R1, P27986
p85a_human PIK3R1, P27986, sequence (P27986 whole entry): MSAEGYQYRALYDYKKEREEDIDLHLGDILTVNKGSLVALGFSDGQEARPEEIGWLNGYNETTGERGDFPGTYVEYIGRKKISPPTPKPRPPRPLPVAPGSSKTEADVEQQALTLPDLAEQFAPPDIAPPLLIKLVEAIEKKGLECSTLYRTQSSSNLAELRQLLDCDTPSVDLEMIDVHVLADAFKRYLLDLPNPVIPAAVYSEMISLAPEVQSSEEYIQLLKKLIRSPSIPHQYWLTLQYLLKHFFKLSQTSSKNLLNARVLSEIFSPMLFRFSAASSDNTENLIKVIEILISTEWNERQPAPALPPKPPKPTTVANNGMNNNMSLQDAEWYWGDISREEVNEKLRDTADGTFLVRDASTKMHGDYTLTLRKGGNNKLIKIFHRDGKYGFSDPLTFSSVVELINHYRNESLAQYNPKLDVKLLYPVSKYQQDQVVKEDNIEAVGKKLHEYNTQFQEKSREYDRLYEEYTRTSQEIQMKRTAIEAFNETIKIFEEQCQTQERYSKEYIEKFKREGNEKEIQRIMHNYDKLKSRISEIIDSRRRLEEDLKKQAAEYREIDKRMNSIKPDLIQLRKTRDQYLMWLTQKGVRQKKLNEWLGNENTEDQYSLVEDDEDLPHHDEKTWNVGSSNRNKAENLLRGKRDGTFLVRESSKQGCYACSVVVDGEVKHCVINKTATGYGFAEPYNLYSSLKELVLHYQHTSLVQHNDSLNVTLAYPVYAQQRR

Variant	effect of a mutation on the interaction
E525K	with no effect
E1021K	with no effect

Source: IntAct's records for PubMed 24165795
